Test results published in US20250027068.

Target: pooled human IgG (human IgG1,2,3 and 4)

Protein	Enzyme activity endpoint: Fab′2 [ng/µL]	Enzyme activity endpoint: Fc [ng/µL]	Enzyme activity endpoint: IgG [ng/µL]	Enzyme activity endpoint: scIgG [ng/µL]	Enzyme Activity Endpoint Assay: Fab′2 [ng/µL]	Enzyme Activity Endpoint Assay: Fc [ng/µL]	Enzyme Activity Endpoint Assay: IgG [ng/µL]	Enzyme Activity Endpoint Assay: scIgG [ng/µL]
PRT-557 (protein) MANQEIRYSEEDGKTITSVWTKGVTPPTDFQKNEDVYHAPYVANQGWYDITKTFNGKDDLLCGAATAGNMLHWWFDQNKEEIERYLKKHPEKQKINFNGEQMFDVKEAIDTKDSQTDSALFEYFKDKAFPYLSTKHLGVFPDHVIDMFINGYRLSLTNHGPTPVKDGTKDPRGGIFDAVFTRGDQTKLLTERHDFKEKTLNEISDLIKQELQEGKALGLSHTYANVRINHVINLWGADFDSEGNLEAIYVTDSDSNASIGMKKYYVGVNSAGKVAISAKEIEDDNIGAQVLGLFTLSTGKDIWEQTNLEHHHHHH	512	410	0	194				
PRT-87 (protein) MANQEIRYSEVTPYHITSVWTKGVTPPEQFTQGEDVFHAPYIANQGWYDITKTFNGKDNLLCGAATAGNMLHWWFDQNKEEIERYLKKYPEKQKIMFGDQELLDVRKVINTKDSQTNSKLFEYFRDKAFPNLSARRLGVMPDLVLDMFINGYYLSVTKTQTTDVNRTYGNKDNRGGIFDAVFTRGDQSKLLTNRHDFKEKNLKEISQLIKQELQEGKALALSHTYANVRINHVINLWGADFDSEGNLKAIYVTDSDSNASIGMKKYFVGVNSSGKVAISAKEIEEDNIGAQVLGLFTLSTGQDIWEQTN					0	52	60	50
PRT-628 (protein) MQITSVWTKGVTPLTPEQFRYNNEDVIHAPYLAHQGWYDITKAFDGKDNLLCGAATAGNMLHWWFDQNKEEIEAYLKKHPEKQKIIFNNQELFDLKAAIDTKDSQTNSQLFNYFRDKAFPNLSARQLGVMPDLVLDMFINGYYLNVFKTQSTDVNRPYQDKDKRGGIFDAVFTRGDQTTLLTARHDLKNKGLNDISTIIKQELTEGRALALSHTYANVSISHVINLWGADFNAEGNLEAIYVTDSDANASIGMKKYFVGINAHGHVAISAKKIEGENIGAQVLGLFTLSSGQDIWQQLSLEHHHHHH	852	465	0	0				
PRT-679 (protein) MQITSVWTKGVTPLTPEQFRYNNEDVIHAPYLAHQGWYDITKTFDGKDNLLCGAATAGNMLHWWFDQNKTEIEAYLSKHPEKQKIIFNNQELFDLKEAINTKDSQTNSQLFNYFRDKAFPNLSARQLGVMPDLVLDMFINGYYLNVFKTQSTDVNRPYQDKDKRGGIFDAVFTRGDQTTLLTARHDLKNKGLNEISTIIKQELTEGKALALSHTYANVSISHVINLWGADFNAEGNLEAIYVTDSDANASIGMKKYFVGINAHGHVAISAKKIEGENIGAQVLGLFTLSSGKDIWQKLSLEHHHHHH	693	327	34	54				
PRT-652 (protein) MQITSVWTKGVTPLTPEQFRYNNEDVIHAPYLAHQGWYDITKAFDGKDNLLCGAATAGNMLHWWFDQNKTEIEAYLSKHPEKQKIIFNNQELFDLKAAIDTKDSQTNSQLFNYFRDKAFPNLSARQLGVMPDLVLDMFINGYYLNVFKTQSTDVNRPYQDKDKRGGIFDAVFTRGDQTTLLTARHDLKNKGLNDISTIIKQELTEGRALALSHGTANGGYSHVINLWGADFNAEGNLEAIYVTDSDANASIGMKKYFVGINAHGHVAISAKKIEGENKGAQVLGLFTLSSGKDIWQKLSLEHHHHHH	410	0	789	12				
PRT-653 (protein) MQITSVWTKGVTPLTPEQFRYNNEDVIHAPYLAHQGWYDITKAFDGKDNLLCGAATAGNMLHWWFDQNKTEIEAYLSKHPEKQKIIFNNQELFDLKAAIDTKDSQTNSQLFNYFRDKAFPNLSARQLGVMPDLVLDMFINGYYLNVFKTQSTDVNRPYQDKDKRGGIFDAVFTRGDQTTLLTARHDLKNKGLNDISTIIKQELTEGRALALSHTYGNVRSSHVINLWGADFNAEGNLEAIYVTDSDANASIGMKKYFVGINAHGHVAISAKKIEGENVGAQVLGLFTLSSGKDIWQKLSLEHHHHHH	1350	0	2350	0				
PRT-648 (protein) MQITSVWTKGVTPLTPEQFRYNNEDVIHAPYLAHQGWYDITKAFDGKDNLLCGAATAGNMLHWWFDQNKTEIEAYLSKHPEKQKIIFNNQYLFDLKAAIDTKDSQTNSQLFNYFRDKAFGNLSARQLGVMPDLVLDMFINGYYLNVNKTQSTDVNRPYQKPDKRGGIFDAVFTRGDQTTLLTARHDLKNKGLNDISTIIKQELTEGRALALSHTYANVSISHVINLWGADFNAEGNLEAIYVTDSDANASIGMKKYFVGINAHGHVAISAKKIEGENIGAQVLGLFTLSSGKDIWQKLSLEHHHHHH	182	206	417	619				
PRT-656 (protein) MQITSVWTKGVTPLTPEQFRYNNEDVIHAPYLAHQGWYDITKAFDGKDNLLCGAATAGNMLHWWFDQNKTEIEAYLSKHPEKQKIIFNNQELFDLKRAINDKDSQQNSELFNYFRDKAFPNLSARQLGVMPDLVLDMFINGYYLNVFKTQSTDVNRPYQDKDKRGGIFDAVFTRGDQTTLLTARHDLKNKGLNDISTIIKQELTEGRALALSHTYANVSISHVINLWGADFNAEGNLEAIYVTDSDANASIGMKKYFVGINAHGHVAISAKKIEGENIGAQVLGLFTLSSGKDIWQKLSLEHHHHHH	841	540	0	319				
PRT-84 (protein) MANQEIRYSEETPYTVTSVWTKGVTPPTQFIQGEDVFHAPYKANQGWYDITKTFNGKDNLLCGAATAGNMLHWWFDQNKEYIEAYLKKHPEKQKIMFGDQELLDVRKVINTKDSQTDSKLFNYFKDKAFPNLSARRLGVMPDLVLDMFINGYYLNVGKTQTTDVNRTYQEKDKRGGIFDAVFTRGDQSKLLTSRHDFKEKSLKEISDLIKKELTEGKALGLSHTYANVRINHVINLWGADFDSEGNLKAIYVTDSDSDASIGMKKYFVGVNSSGKVAISAKEIEEDNIGAQVLGLFTLSSGQDIWNQTN					8	67	27	51
PRT-86 (protein) MANQEIRYSEEDPKHVTSVWTKGVTPPTDFTQGEDVLHAPYIANQGWYDITKTFNGKDDLLCGAATAGNMLHWWFDQNKEEIENYLKKHPEKQKIMFGDQELLDVRKVINTKDSQTNSKLFNYFREKAFPNLSARRLGVMPDLVLDMFINGYYLNVTKTQTTDVNRTYQTKDKRGGIFDAVFTRGDQTKLLTNRHDFKEKTLNEISDLIKQELQEGKALGLSHTYANVRINHVINLWGADFDSNGNLEAIYVTDSDANASIGMKKYFVGKNSAGKVAISAKEIKDDNIGAQVLGLFTLSTGQDIWNQTN					4	61	45	53
PRT-85 (protein) MANQEIRYSEVTPKTITSVWTKGVTPPADFTQGEDVFHAPYKPNQGWYDINKTFNGKDNLLCGAATAGNMLHWWFDQNKEQIEAYLKKHPEKQKIMFGDQELLDVRKAINTKDDQTDSKLFNYFKDKAFPNLSARRLGVMPDHVLDMFINGYRLNVTKTQTTDVNRTYQTKDKRGGFFDAVFTRGDQSKLLTNRHDFKEKNLKEISDLIKKELTEGKALGLSHTYANVRINHVINLWGADFDSEGNLKAIYVTDSDSNASIGMKKYYVGVNSAGKVAISAKEIKGENIGAQVLGLYTLSTGQDIWNQTN					0	0	109	0
PRT-672 (protein) MQITSVWTKGVTPPTPEQFTYQNEDVFHAPYIANQGWYDITKTFNGKDNLLCGAATAGNMLHWWFDQNKTEIENYLKKHPEKQKIIFNNQEMFDLRKAINTKDSQTNSALFEYFRDKAFPNLSARQLGVMPDHVLDMFINGYYLNVTKTQSTDVNRPYQTKDKRGGIFDHVFTRGDQSKLLTARHDLKNKTLNEISDLIKQELTEGKALALSHTYANVRINHVINLWGADFDAEGNLEAIYVTDSDSNASIGMKKYFVGVNSSGKVAISAKKIEDDNIGAQVLGLFTLSSGQDIWEQLSLEHHHHHH	775	443	73	0				
PRT-664 (protein) MQITSVWTKGVTPLTPEQFRYNNEDVIHAPYLPHQGWYDITKAFDGKDNLLCGAATAGNMLHWWFDQNKTEIEAYLSKHPEKQKIIFNNQELFDLRAAINTKDSQTNSALFNYFRDKAFPNLSARQLGVMPDLVLDMFINGYYLNVFKTQSTDVNRPYQDKDKRGGIFDAVFTRGDQTTLLTARHDLKNKGLNDISTLIKQELTEGKALALSHTYANVSISHVINLWGADFNAEGNLEAIYVTDSDSDASIGMKKYYVGINASGHVAISAKKIEGENIGAQVLGLFTLSSGKDIWQKLSLEHHHHHH	703	419	0	0				
PRT-674 (protein) MQITSVWTKGVTPPTMEQFRYNNYDVFHAPYLPGQGWYDITKAFDGGDNLLCGAATAGNMLHWWFDQNKEEIEAYLSKYPEKQKIIFNNQELFDLRKAINSKDSQTNSELFNYFRDKAFGNLSARQKGVMPDLVLDMFINGYYLNLNKTQSTDVNRPYQDPDKRGGIFDDVFKEGDQTKLLTARHDLSNGGLDDISTIIKQELQSGRALALSHTYANVSYSHVINLWGADFDAEGNLEAIYVTDSDDDQSIGMKKYKVGKNASGHVRISAKKIEDENIGAQVLGLFTLSLGKEIWQKLSLEHHHHHH	462	0	891	12				
